In test [1] the target is KEAP1 (wild-type full-length), His-tagged (human) (UniProt Q14145). The test can be described thus: AlphaScreen; 1228.8 nM FLAG-NRF2, 150 nM His-KEAP1; Rep 1; control for I86V.
Test [2] shares this target. The test can be described thus: AlphaScreen; FLAG-NRF2 wt isoform 1 38.4 nM, His-KEAP1 150 nM; Rep 2; positive control for Q75R.
The target is the same in test [3]. The test can be described thus: AlphaScreen; 1228.8 nM FLAG-NRF2, 150 nM His-KEAP1; signal against NRF2 only; control for I28V. Background: In Alpha technology, singlet oxygen from a donor bead excites a nearby acceptor bead.
Test [4] shares this target. The test is described as follows: AlphaScreen; FLAG-NRF2 wt isoform 1 9.6 nM, His-KEAP1 150 nM; Rep 2; positive control for I86V.
Test [5] shares this target. The test can be described thus: AlphaScreen; 4.8 nM FLAG-NRF2, 150 nM His-KEAP1; Rep 3; control for I86V.
Test [6] has the same target. The test is described as follows: AlphaScreen; FLAG-NRF2 wt isoform 1 307.2 nM, His-KEAP1 150 nM; Rep 2; positive control for Q75R.
Test [7] shares this target. The test is described as follows: AlphaScreen; NRF2 wt isoform 1 76.8 nM, KEAP1 150 nM; signal against NRF2-only control; control for Q75R.
The target is the same in test [8]. The test can be described thus: AlphaScreen; FLAG-NRF2 wt isoform 1 9.6 nM, His-KEAP1 150 nM; Rep 3; positive control for I86V.
The target is the same in test [9]. The test is described as follows: AlphaScreen; NRF2 wt isoform 1 614.4 nM, KEAP1 150 nM; signal against NRF2-only control; control for Q75R.
The target is the same in test [10]. The test can be described thus: AlphaScreen; FLAG-NRF2 wt isoform 1 38.4 nM, His-KEAP1 150 nM; Repeat 2; positive control for Q75R.
Test [11] has the same target. The test can be described thus: AlphaScreen; 614.4 nM FLAG-NRF2, 150 nM His-KEAP1; Rep 2; control for I28V.
For test [12] the target is unchanged. The test can be described thus: AlphaScreen; NRF2 wt isoform 1 38.4 nM, KEAP1 150 nM; set as the 100 % reference for Q75R.
The target is the same in test [13]. The test is described as follows: AlphaScreen; 9.6 nM FLAG-NRF2, 150 nM His-KEAP1; against wild-type NRF2 isoform 1 = 100%.
Test [14] has the same target. The test can be described thus: AlphaScreen, all variants on one plate; average of three conditions ± standard deviation, KEAP1 150 nM; relative to NRF2 (WT) isoform 1.
Test [15] has the same target. The test is described as follows: AlphaScreen, all variants on one plate; lower condition (9.6 nM NRF2), KEAP1 150 nM; relative to NRF2 (WT) isoform 1.
For test [16] the target is unchanged. The test can be described thus: AlphaScreen, all variants on one plate; optimal condition (19.2 nM NRF2), KEAP1 150 nM; relative to NRF2 (WT) isoform 1.
For test [17] the target is unchanged. The test can be described thus: AlphaScreen, all variants on one plate; upper condition (38.4 nM NRF2), KEAP1 150 nM; relative to NRF2 (WT) isoform 1.
The target is the same in test [18]. The test can be described thus: AlphaScreen; 76.8 nM FLAG-NRF2, 150 nM His-KEAP1; Rep 1.
The target is the same in test [19]. The test can be described thus: AlphaScreen; mean over 9.6, 19.2 and 38.4 nM NRF2; 150 nM His-KEAP1; against wild-type NRF2 isoform 1 = 100%.
Test [20] has the same target. The test is described as follows: AlphaScreen; 38.4 nM FLAG-NRF2, 150 nM His-KEAP1; Rep 2.
Test [21] shares this target. The test can be described thus: AlphaScreen; NRF2 Q75R 4.8 nM, KEAP1 150 nM; signal against NRF2-only control.
For test [22] the target is unchanged. The test can be described thus: AlphaScreen; FLAG-NRF2 Q75R 76.8 nM, His-KEAP1 150 nM; Rep 2.
Test [23] shares this target. The test can be described thus: AlphaScreen; average ± standard deviation over three NRF2 concentrations, KEAP1 150 nM; relative to wild-type NRF2 isoform 1.
For test [24] the target is unchanged. The test can be described thus: AlphaScreen; FLAG-NRF2 I86V 1228.8 nM, His-KEAP1 150 nM; Rep 2.
Test [25] has the same target. The test can be described thus: AlphaScreen; FLAG-NRF2 I86V 9.6 nM, His-KEAP1 150 nM; Rep 2.
For test [26] the target is unchanged. The test can be described thus: AlphaScreen; FLAG-NRF2 I86V 614.4 nM, His-KEAP1 150 nM; Rep 1.

Changes are numbered by the printed parent chain. Names may count otherwise.

Data on four molecules can be found in US20250352667A1.

Sequence of KEAP1 (wild-type full-length), His-tagged (human) (Q14145 2-624 limits assumed): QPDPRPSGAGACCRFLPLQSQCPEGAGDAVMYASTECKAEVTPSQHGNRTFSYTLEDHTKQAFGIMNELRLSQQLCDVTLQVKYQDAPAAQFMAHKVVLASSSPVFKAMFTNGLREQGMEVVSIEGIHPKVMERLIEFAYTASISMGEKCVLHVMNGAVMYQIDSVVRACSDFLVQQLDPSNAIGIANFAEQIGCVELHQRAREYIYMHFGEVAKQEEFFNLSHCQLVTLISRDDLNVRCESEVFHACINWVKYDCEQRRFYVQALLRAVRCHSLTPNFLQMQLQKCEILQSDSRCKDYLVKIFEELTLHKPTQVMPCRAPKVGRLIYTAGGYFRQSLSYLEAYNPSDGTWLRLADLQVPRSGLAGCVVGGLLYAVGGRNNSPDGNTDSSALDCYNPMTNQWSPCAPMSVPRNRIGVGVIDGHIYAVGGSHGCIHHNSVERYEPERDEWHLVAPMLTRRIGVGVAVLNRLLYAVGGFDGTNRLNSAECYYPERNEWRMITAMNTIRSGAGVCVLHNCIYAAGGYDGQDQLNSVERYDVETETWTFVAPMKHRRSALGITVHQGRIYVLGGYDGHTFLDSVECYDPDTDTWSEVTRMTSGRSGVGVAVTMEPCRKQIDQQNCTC

B1: NRF2 isoform 1 (wild-type full-length), FLAG-tagged (protein)
chain: MMDLELPPPGLPSQQDMDLIDILWRQDIDLGVSREVFDFSQRRKEYELEKQKKLEKERQEQLQKEQEKAFFAQLQLDEETGEFLPIQPAQHIQSETSGSANYSQVAHIPKSDALYFDDCMQLLAQTFPFVDDNEVSSATFQSLVPDIPGHIESPVFIATNQAQSPETSVAQVAPVDLDGMQQDIEQVWEELLSIPELQCLNIENDKLVETTMVPSPEAKLTEVDNYHFYSSIPSMEKEVGNCSPHFLNAFEDSFSSILSTEDPNQLTVNSLNSDATVNTDFGDEFYSAFIAEPSISNSMPSPATLSHSLSELLNGPIDVSDLSLCKAFNQNHPESTAEFNDSDSGISLNTSPSVASPEHSVESSSYGDTLLGLSDSEVEELDSAPGSVKQNGPKTPVHSSGDMVQPLSPSQGQSTHVHDAQCENTPEKELPVSPGHRKTPFTKDKHSSRLEAHLTRDELRAKALHIPFPVEKIINLPVVDFNEMMSKEQFNEAQLALIRDIRRRGKNKVAAQNCRKRKLENIVELEQDLDHLKDEKEKLLKEKGENDKSLHLLKKQLSTLYLEVFSMLRDEDGKPYSPSEYSLQQTRDGNVFLVPKSKKPDVKKN
Consider B1, for which the A-counts stood at 2930 A-counts in test [1], 1860 A-counts in test [5] and 1810 A-counts in [11]. Further, the A-counts (NRF2 plus KEAP1) in test [2] was determined as 1450 A-counts; in [4], 2720 A-counts; in [6] it was 1570 A-counts; in test [8], 2410 A-counts; in [10] it was 1450 A-counts. The S/N in test [3] was 1; in test [7] it was 2.5; in [9], 1. This molecule also gave a Binding Percentage in [12] of 100%.

B2: NRF2 isoform 1 (I28V full-length), FLAG-tagged (protein)
chain: B1 chain with I28V
Regarding B2, the Binding Percentage (%) in [13] was 77.6%. Also, in test [14], the % Disruption in Binding (Reported Values) is 20.3%. In addition, the % Disruption in Binding in [15] stood at 16.7%; in test [16], 22.6%; in test [17], 21.5%. Further, the A-counts in test [18] came to 1560 A-counts; in test [20] it was 1680 A-counts. Moreover, the Average Binding in [19] amounted to 69.8%.

B3: NRF2 isoform 1 (Q75R full-length), FLAG-tagged (protein)
chain: B1 chain with Q75R
In the case of B3, in [14], the % Disruption in Binding (Reported Values) was found to be 27.5%. Further, the % Disruption in Binding in test [15] was determined as 29.3%; in [16], 28.3%; in test [17] it was 25.1%. In addition, in test [21], the S/N was found to be 2.3. For the same molecule, in test [22], the A-counts (NRF2 plus KEAP1) stood at 1150 A-counts. In addition, in [23], the Reported Value (reduction in binding) came to 30.2%.

B4: NRF2 isoform 1 (I86V full-length), FLAG-tagged (protein)
chain: B1 chain with I86V
For B4, the A-counts (NRF2 plus KEAP1) in [24] is 1580 A-counts; in test [25], 2610 A-counts; in test [26] it was 2000 A-counts. Moreover, in test [14], the % Disruption in Binding (Reported Values) is 8.4%. The % Disruption in Binding is 5.7% in test [15], 9.2% in test [16] and 10.5% in test [17]. In test [23], this molecule showed a Reported Value (reduction in binding) of 3.2%.
